Assay results taken from patent US20190367631A1 (Regeneron, published 2019).
Where a chain is given by its changes, count along the chain named. Numbers in names are those of the source.

T1: full length human MSR1 with a C-terminal Myc tag, on HEK293.Myc.hMSR1 cells (human, UniProt P21757 1-451)
T1 sequence (looked up): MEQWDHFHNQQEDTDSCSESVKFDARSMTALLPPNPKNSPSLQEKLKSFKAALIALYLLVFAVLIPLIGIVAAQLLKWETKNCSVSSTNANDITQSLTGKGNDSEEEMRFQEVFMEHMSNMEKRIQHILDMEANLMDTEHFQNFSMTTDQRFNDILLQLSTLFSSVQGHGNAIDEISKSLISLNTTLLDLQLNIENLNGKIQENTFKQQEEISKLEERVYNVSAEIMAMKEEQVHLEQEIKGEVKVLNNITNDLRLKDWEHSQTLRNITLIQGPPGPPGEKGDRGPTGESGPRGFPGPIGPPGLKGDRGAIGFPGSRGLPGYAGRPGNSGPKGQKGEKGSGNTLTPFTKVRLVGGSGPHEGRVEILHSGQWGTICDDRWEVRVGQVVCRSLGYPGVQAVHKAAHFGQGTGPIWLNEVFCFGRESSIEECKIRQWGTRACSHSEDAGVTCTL

T2: mouse MSR1 on RAW264.7 cells (mouse, UniProt P30204 1-458)
T2 construct: whole, on cells; also called MSR1 positive RAW264.7 cells
T2 sequence (looked up): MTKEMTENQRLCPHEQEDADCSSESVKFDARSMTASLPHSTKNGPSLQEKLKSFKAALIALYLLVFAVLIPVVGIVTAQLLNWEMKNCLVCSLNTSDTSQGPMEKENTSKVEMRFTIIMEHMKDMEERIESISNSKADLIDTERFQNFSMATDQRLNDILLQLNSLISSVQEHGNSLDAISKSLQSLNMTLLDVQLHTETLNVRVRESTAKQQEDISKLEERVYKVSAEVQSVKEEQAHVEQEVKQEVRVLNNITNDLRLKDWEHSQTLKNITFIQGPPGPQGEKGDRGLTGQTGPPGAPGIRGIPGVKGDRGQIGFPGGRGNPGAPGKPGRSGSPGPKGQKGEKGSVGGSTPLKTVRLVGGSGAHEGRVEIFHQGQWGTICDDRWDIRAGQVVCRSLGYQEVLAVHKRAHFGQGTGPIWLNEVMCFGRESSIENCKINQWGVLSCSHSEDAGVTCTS

T3: full length monkey MSR1 on HEK293.mfMSR1 cells (Macaca fascicularis, UniProt A0A2K5UWE2 1-451)
T3 construct: whole, on cells
T3 sequence: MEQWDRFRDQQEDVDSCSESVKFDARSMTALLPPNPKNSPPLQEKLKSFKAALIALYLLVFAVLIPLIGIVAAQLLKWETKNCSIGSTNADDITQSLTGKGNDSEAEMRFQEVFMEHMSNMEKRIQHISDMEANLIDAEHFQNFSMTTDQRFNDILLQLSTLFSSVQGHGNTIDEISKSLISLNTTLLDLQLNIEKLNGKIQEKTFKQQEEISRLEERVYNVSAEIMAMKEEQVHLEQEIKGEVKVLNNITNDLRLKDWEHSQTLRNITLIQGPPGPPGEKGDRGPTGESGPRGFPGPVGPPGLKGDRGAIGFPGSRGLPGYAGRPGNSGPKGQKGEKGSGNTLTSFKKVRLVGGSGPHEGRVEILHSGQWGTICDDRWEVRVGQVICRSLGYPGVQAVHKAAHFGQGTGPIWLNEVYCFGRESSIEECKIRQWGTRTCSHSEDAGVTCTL

B1: H1H27739P-N297Q (antibody, human IgG1, V domains shown)
VH: EVQLVESGGGLVQPGGSLRLSCTASGFTFSSYAMSWVRQAPGKGLEWVSAISGTGSSTYFTDSVKGRFAISRDNSKNTLYLQMNSLRAEDTAVYYCAKDGEWLSTVTLFDYWGQGTLVTVSS
VL: EIVMTQSPATLSVSPGERATLSCRASQSVSSNLAWYQQKPGQAPRLLIYGASTRATGIPARFSGSGSGTDFTLTISSLQSEDFALYYCQQYFIWPPHPTFGPGTKVDIKR
notes: human IgG1 Fc with N297Q
B2: H1H27751P-N297Q (antibody, human IgG1, V domains shown)
VH: EVQLVESGGGLVQPGGSLRLSCAASGFTFSNYAMHWVRQAPGKGLEYVSAISSNGGSTYYADSVKGRITISRDNSKNTLYLQMGSLRAEDMAVYYCARGRPYYYYFGMDVWGQGTTVTVSS
VL: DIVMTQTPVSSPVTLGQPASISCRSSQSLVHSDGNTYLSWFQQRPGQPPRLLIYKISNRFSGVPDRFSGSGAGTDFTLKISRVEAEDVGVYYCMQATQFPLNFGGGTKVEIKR
notes: human IgG1 Fc with N297Q
B3: H2aM21228N (antibody, mouse IgG2a, V domains shown)
VH: VQLVESGGGLVQPGGSLRLSCAASGFTFSDHYMDWVRQAPGKGLEWVGRTRNKANSHTTEYAASVSGRFTISRDDSKNSLYLQMNSLKTEDTAVYYCTRAGIIGTLFDYWGQGTLVTVSS
VL: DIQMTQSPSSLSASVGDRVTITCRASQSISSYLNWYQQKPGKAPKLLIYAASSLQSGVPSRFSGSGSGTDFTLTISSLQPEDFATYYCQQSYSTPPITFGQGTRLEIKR
notes: mouse IgG2a Fc
B4: H1H27762P2-N297Q (antibody, human IgG1, V domains shown)
VH: QVQLVQSGAEVKKPGSSVKVSCKASGGTFSRYDISWVRQAPGQGLEWMGGIIPIFGTSNYAQKFQGRVTITTDESTSTVYMELSSLRSEDTAVYYCARGGRYGWFDPWGQGTLVTVSS
VL: not shown
notes: human IgG1 Fc with N297Q; also called H1H27762P-N297Q
B5: H1H27761P2-N297Q (antibody, human IgG1, V domains shown)
VH: EVQLVESGGDLVQPGGSLRLSCSASGFTFNIYAMSWVRQAPGKGLEWVSGISGSGGSTYYADSVKGRFTISRDNSKNTLYFQMNSLRVEDTAVYYCAKKISSSSYYYYAMDVWGQGTTVTVSS
VL: not shown
notes: human IgG1 Fc with N297Q; also called H1H27761P-N297Q
B6: H1H27759P2-N297Q (antibody, human IgG1, V domains shown)
VH: EVQLVESGGGFVQPGGSLRLSCAASGFTFSSYAMSWVRQAPGKGLEWVSAISGTGSNTYYADSVKGRFTISRDNSKNTLYLQMNSLRAEDTAVYYCAKDRVTTVTYYFDYWGQGTLVTVSS
VL: not shown
notes: human IgG1 Fc with N297Q; also called H1H27759P-N297Q
B7: H2aM21229N (antibody, mouse IgG2a, V domains shown)
VH: EVQLVESGGGLVKPGGSLRLSCAASGFTFSRYSMNWVRQAPGKGLEWVSSISSSSSYIYYGDTVKGRFTISRDNAKKSLYLQMNSLRAEDTAVYYCVRDRGQLVLYFDYWGQGTLVTVSS
VL: DIQMTQSPASLSTSIRDRVTITCRASLSISSFLNWFQQRPGKAPKLLIYVASNLQSGVPSRFSDSGSGTDFTLTISSLQPEDFATYYCQQNYSTPPITFGQGTRLEIK
notes: mouse IgG2a Fc
B8: H2aM25695N (antibody, mouse IgG2a, V domains shown)
VH: QVQLQESGPGLVKPSETLSLTCTVTGGSISRNYWSWIRQPPGKGLEWIGYIYYSGSINYNPSLKSRVTISVDMSKNQFSLKLNSVTAADTAVYYCARDRWNWKYGMDVWGQGTTVIVSS
VL: EIVLTQSPGTLSLSPGERATLSCRASQTVRNSYLAWYHQKPGQAPRLLIYGASSRATGIPDRFSGSGSGTDFTLTISRLEPEDFAVYYCQQYGSSYWTFGQGTKMEIKR
notes: mouse IgG2a Fc
B9: H1H21234N (antibody, human IgG1, V domains shown)
VH: B8 VH with N58D, M73T, N83S, V85M
VL: B8 VL with S32N, A85T, Q90H, S94N, Y96P
notes: original human IgG1 Fc
B10: H1xH29283P2 (antibody, V domains shown)
VH: B4 VH with A9T, D33T, I34F, S58T, A97T
VL: not shown
B11: H1xH27759P2 (antibody, V domains shown)
VH: B6 VH
VL: not shown

The binders below were run against T1, full length human MSR1 with a … (assay: cell-based or functional assay).

| Binder | % Inhibition of Dil-Oxidized LDL uptake | IC50 of Dil-Oxidized LDL uptake inhibition | % Inhibition of Dil-Acetylated LDL uptake | IC50 of Dil-Acetylated LDL uptake inhibition |
| --- | --- | --- | --- | --- |
| B1 | 55% | > 100 nM |  |  |
| B2 | 85% | 2.9 nM | 59% | 1.6 nM |
| B3 | 79% | 3.1 nM | 10% | > 100 nM |
| B4 | 78% | 4 nM | 38% | 2.9 nM |
| B5 | 43% | 9.5 nM | 29% | > 100 nM |
| B6 | 74% | > 10 nM | 48% | > 100 nM |
| B7 | 26% | > 100 nM |  |  |
| B8 | 69% | > 16 nM | 40% | > 170 nM |
| B9 | 64% | 4.3 nM | 36% | 0.71 nM |

The binders below were run against T2, mouse MSR1 on RAW264.7 cells (assay: flow cytometry, RAW264.7 cells).
Protocol: To block binding to Fc receptors, RAW264.7 cells were incubated for 30 minutes at 4° C. with 500 pg/mL mouse IgG (Jackson ImmunoResearch, Cat #015-000-003) diluted in staining buffer, while B16F10.9 cells remained in staining buffer. […] The signal to noise (S/N) was determined by calculating the ratio of the anti-MSR1 antibodies or the control antibodies MFI to the unstained sample MFI (Table 11).

| Binder | MFI | S/N (MFI over unstained MFI) |
| --- | --- | --- |
| B1 | 3270 MFI | 1 |
| B2 | 3820 MFI | 1 |
| B4 | 3520 MFI | 1 |
| B5 | 3840 MFI | 1 |
| B6 | 3290 MFI | 1 |

These binders were tested against T3, full length monkey MSR1 on … (assay: ECL cell binding, HEK293.mfMSR1 cells, 11 nM).
Protocol: (§1) All cells were washed once with 1×PBS with Ca²⁺/Mg²⁺ and counted with a Cellometer™ Auto T4 cell counter (Nexcelom Bioscience). Approximately 1.0×10⁴ cells were seeded separately onto 96-well carbon electrode plates [MULTI-ARRAY high bind plate, Meso Scale Diagnostics] and incubated for 1 hour at 37° C. Non-specific binding sites were then blocked by 2% BSA (w/v) in PBS with Ca²⁺/Mg²⁺ for 1 hour at room temperature. THP-1 cells were pre-incubated for 0.5 hours at room temperature in sample dilution buffer with: 1) 1 mg/mL Fc receptor block reagents to block Fc gamma receptors on THP-1 cell surface [whole molecule human IgG (Jackson Immunoresearch, Cat #009-000-003) for wells being tested with anti-MSR1-mFc antibodies or 2) whole molecule mlgG (Jackson Immunoresearch, Cat #015-000-003) for wells being tested with anti-MSR1-hFc antibodies. Antibody binding on HEK293.Myc.hMSR1, HEK293.mfMSR1 and HEK293 cells was tested without Fc receptor block reagents. […] Plates were then washed to remove unbound antibodies an AquaMax2000 plate washer with a cell washing head (MDS Analytical Technologies). […] Plates were washed and developed with Read Buffer (Meso Scale Diagnostics, Cat # R92TD-2) according to manufacturer's recommended procedure and luminescent signals were recorded with a SECTOR Imager 600 (Meso Scale Diagnostics). Luminescence intensity, measured in relative light units (RLU), was recorded to indicate the binding intensity of each antibody at the range of concentrations.

| Binder | ratio of binding signal (RLU) to isotype control |
| --- | --- |
| B1 | 20 fold |
| B2 | 49 fold |
| B3 | 60 fold |
| B4 | 25 fold |
| B10 | 24 fold |
| B5 | 15 fold |
| B6 | 25 fold |
| B11 | 21 fold |
| B7 | 27 fold |
| B8 | 45 fold |
| B9 | 31 fold |

What follows are binders tested against T1, full length human MSR1 with a … (assay: ECL cell binding, HEK293.Myc.hMSR1 cells, 11 nM).
Protocol: as §1

| Binder | ratio of binding signal (RLU) to isotype control |
| --- | --- |
| B1 | 22 fold |
| B2 | 63 fold |
| B3 | 66 fold |
| B4 | 33 fold |
| B10 | 26 fold |
| B5 | 23 fold |
| B6 | 23 fold |
| B11 | 22 fold |
| B7 | 78 fold |
| B8 | 35 fold |
| B9 | 32 fold |
